Assay [1] deals with T1, purified caspase-14 (Homo sapiens, UniProt P31944).
T1 construct: human caspase-14 was purified as a heterodimer comprising a large subunit (17 KDa) and a small subunit (11 KDa); from tissue; host or cells: human heel stratum corneum (cornified cells)
T1 sequence (P31944 6-146 limits assumed): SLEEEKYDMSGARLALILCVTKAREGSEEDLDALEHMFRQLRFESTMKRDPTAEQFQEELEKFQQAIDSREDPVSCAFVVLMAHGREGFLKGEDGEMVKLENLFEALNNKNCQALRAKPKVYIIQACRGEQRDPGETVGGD
T1 sequence (P31944 153-242 limits assumed): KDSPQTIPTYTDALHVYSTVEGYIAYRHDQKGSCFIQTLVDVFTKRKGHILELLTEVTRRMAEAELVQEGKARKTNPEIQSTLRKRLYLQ
The assay can be described thus: Caspase-14 activity inhibitor assay with WEHD-MCA substrate. In kind it is biochemical. The procedure: Currently, 15 types of human caspases are known, but caspase-14 was incubated together with various peptide inhibitors for caspases (YVAD (SEQ ID NO:3), VDVAD (SEQ ID NO:4), DEVD (SEQ ID NO:5), VEID (SEQ ID NO:6), IETD (SEQ ID NO:7), LEHD (SEQ ID NO:8), DNLD (SEQ ID NO:9)), class-specific inhibitors for cysteine proteinases (IAA) or serine proteinases (AEBSF). WEHD-MCA (SEQ ID NO:10) was used as substrate in the presence of 1.3 M sodium citrate and 5 mM DTT, and the residual enzyme activity was measured. The tested enzyme concentrations were 5, 2.5 and 1.25 μM. The values were represented as mean values for multiple assays.
Caspase-14 activity was assayed by the method described in Mikolajczyk J. et al., Biochemistry 43, 10560-9 (2004), with some modifications, using Ac-WEHD-MCA as substrate. Briefly, an assay mixture was prepared from 45 μL of 0.1 M HEPES buffering solution (pH 7.5), 0.06 M NaCl, 0.01% CHAPS, 5 mM DTT, 1.3 M sodium citrate and 10 μM WEHD-MCA (all final concentrations). After adding enzyme sample (5 μl) to the mixture, it was incubated for 10-30 minutes. The reaction was suspended by addition of 150 μl of 0.1 M monochloroacetic acid, and Fluoroskan Ascent FL (Thermo Electron Co., Wolsam, Mass.) was used for measurement with a 355 nm excitation wavelength and a 460 nm luminous wavelength. For the inhibitor assay, caspase-14 and peptide inhibitor were incubated at room temperature for 15 minutes in assay buffer, and 5 μl of 100 μM WEHD-MCA was added to start the assay.
Human cornified cells (about 14 g) scraped from healthy human heel were extracted with 0.1 M Tris-HC1 (pH 8.0) containing 0.14 M NaCI, using a glass homogenizer. After centrifuging at 15,000g for 60 minutes, the supernatant was collected. It was concentrated with Amicon Ultra (Millipore, MA) and desalted with a Fast Desalting Column HR10/10 (Amersham Biosciences), and then the crude product was coated onto a HiPrep 16/10 Q XL column. The column was cleaned with 20 mM Tris-HCI (pH 8.0) and eluted with a 0-1 M linear NaCl gradient. The fraction was tracked by Western blotting using caspase-14antibody (H-99) (Santa Cruz Biotechnology, CA) and h14D^146 antibody. Each fraction was subjected to assay of hydrolytic activity on Ac Trp-Glu-His-Asp-methyl-coumarinamide (WEND-MCA) (Peptide Institute, Inc., Osaka, Japan). The positive fraction was applied to a Mono Q column equilibrated with the same buffering solution, and eluted with a NaCl gradient of up to 1M. The caspase-14 fraction was further separated by Mono S positive cation exchange chromatography. The column was equilibrated with 20mM acetic acid buffer (pH 4.5) and eluted with a 0-1 M NaCl gradient. The positive fraction was concentrated and applied to a chromatofocusing Mono P column equilibrated with 25 mM ethanolamine (pH 8.3). Next, elution was performed while forming a pH gradient from pH 8 to 5 using 46ml of Polybuffer (pH 5.0). Caspase-14 was subjected to final purification using Superdex 75 gel chromatography. The protein concentration was determined using a BioRad Protein Assay Kit (BioRad Lab, Hercules, CA).

In assay [2] the test system is skin equivalent models. As to conditions: skin equivalent models (Weil et al., 1999); cited from earlier work.
The target in assay [3] is T2, caspase-14 (Homo sapiens, UniProt P31944).
T2 construct: human caspase-14 was purified as a heterodimer comprising a large subunit (17 KDa) and a small subunit (11 KDa); from tissue; host or cells: human heel stratum corneum (cornified cells)
T2 sequence (P31944 6-146 limits assumed): T1 sequence (P31944 6-146 limits assumed)
T2 sequence (P31944 153-242 limits assumed): T1 sequence (P31944 153-242 limits assumed)
The assay can be described thus: ICAD cleavage by purified caspase-14, Western blotting. In kind it is biochemical. As to conditions: for inhibition of ICAD decomposition by caspase-14: prolonged incubation (up to 16 hours), kosmotropic salt. An excerpt: Identified were 33 KDa and 27 KDa cleavage products. […] ICAD decomposition was observed only in the presence of a kosmotropic salt.
For Western blotting and immunohistochemical analysis of ICAD, anti-ICAD IgG (FL331, Santa Cruz Biotechnology) and DFF45/ICAD Ab-2 (NeoMarkers, Fremont, Calif.) were used.
The protein was separated by SDS-polyacrylamide gel electrophoresis with a 5-20% gradient gel. After electrophoresis, the protein was transferred onto a polyvinylidene difluoride membrane (Immobilon-P, Millipore, Bedford, Mass.) and incubated together with anti-caspase-14 antibody including H-99, h14D^146 or C20. Peroxidase-labeled anti-rabbit IgG (Sigma) or anti-goat IgG was used as secondary antibody and ECL-Plus (Amersham) was used as immunoreactive protein for visualization by chemiluminescence.
The present inventors tested the effect of caspase-14 on ICAD, in the course of searching for natural substrates of caspase-14, because disappearance of nuclei is a very important event for final differentiation.
For orientation: In western blotting, separated proteins are transferred to a membrane and probed.

For assay [4], the system named is caspases 1-10. The assay is described as follows: Recombinant active caspases incubated with SCCA-1. In kind it is biochemical. The text has this: Benzyloxycarbonyl (Z)-YVAD-FMK, Z-YVAD-FMK, Z VDVAD-FMK, Z-DEVD-FMK, Z-VEID-FMK, Z-IETD-FMK, Z-LEHD-FMK, and Z-VAD-FMK were purchased from BioVision (Mountain View, CA). Recombinant caspases 1-10 were obtained from BIOMOL Research Labs, Inc. (Plymouth Meeting, PA).
Although SCCA-1 belongs to the serpin superfamily, it inhibits cysteine proteinases such as papain and cathepsin L (Takeda A. et al., Biol. Chem. 383, 1231-6 (2002)). […] Kosmotropic conditions were used for caspase-14. […] The enzyme activity was not recovered even with extended incubation.

The target in assay [5] is T3, caspase-3 (Homo sapiens, UniProt P42574).
T3 construct: When recombinant active caspases were incubated together with SCCA-1; purchased BIOMOL Research Labs, Inc. (Plymouth Meeting, PA)
T3 sequence (P42574 29-175 limits assumed): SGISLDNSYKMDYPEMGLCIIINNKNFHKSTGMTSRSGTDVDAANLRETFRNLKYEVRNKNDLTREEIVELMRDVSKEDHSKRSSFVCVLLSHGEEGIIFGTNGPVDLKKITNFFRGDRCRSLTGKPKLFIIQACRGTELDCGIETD
T3 sequence (P42574 176-277 limits assumed): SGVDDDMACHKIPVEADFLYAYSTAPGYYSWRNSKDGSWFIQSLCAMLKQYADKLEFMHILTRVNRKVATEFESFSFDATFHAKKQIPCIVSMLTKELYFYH
The assay is described as follows: Caspase-3 activity with synthetic substrate DEVD-MCA or natural substrate ICAD. Format: biochemical. The text has this:
The enzymatic properties of purified caspase-14 were highly unique. Purified caspase-14exhibited relatively wide inhibitor sensitivity with respect to known caspase inhibitors. […] It was shown, for the first time, that SCCA-1 is an endogenous inhibitor of caspase-14. The property most specific to SCCA-1 is its high specificity for caspase-14. The other members, caspases 1-10, had never been reported as being affected by SCCA-1. […] This behavior is in contrast to Crm A. […] is also known to suppress several caspases including caspase-1 and caspase-8 (Gagliardini V. et al., Science 263: 826-8 (1994)). XIAP is known to inhibit caspase-3, -7, and -9 (Srinivasula S.M. et al., Nature 410: 112-6 (2001)). Since the anti-apoptotic protein p35 inhibits caspase-1, -3, -6, -7, -8, and -10, it is believed to have a wider spectrum.

Where [6] appears, read: WEHD-MCA substrate, 1.3 M sodium citrate, 5 mM DTT, tested concentrations 5, 2.5 and 1.25 μM.

Results on ten molecules are retold here after patent US9063157B2, “Method for evaluating skin condition using squamous cell carcinoma antigen as marker” (Shiseido Company, Ltd., priority 2005, dated 2015).

Entries after “also recorded” stand apart in the source; their conditions may differ. Read-outs that look alike come from different tables or passages of the source. * marks the point of attachment. Cbz = O=C(OCc1ccccc1)*; CH2F = FC*

With Benzyloxycarbonyl (Z)-YVAD-FMK, the “inhibiting effect against caspase-14 activity (residual enzyme activity)” value (“inhibiting effect … (residual enzyme activity)” below) in assay [1] (setting [6]) is listed as “most powerful inhibiting effect; also recorded: strongest inhibition”.
“IETD-FMK: caspase-8 inhibitor (Cbz-IETD-CH2F; SMILES CC[C@H](C)[C@H](NC(=O)OCc1ccccc1)C(=O)N[C@@H](CCC(=O)O)C(=O)N[C@H](C(=O)N[C@@H](CC(=O)O)C(=O)CF)[C@@H](C)O)”: in assay [1] (setting [6]), the “inhibiting effect … (residual enzyme activity)” value is on record as “exhibited sensitivity”.
“LEHD-FMK: caspase-9 inhibitor (Cbz-LEHD-CH2F; SMILES CC(C)C[C@H](NC(=O)OCc1ccccc1)C(=O)N[C@@H](CCC(=O)O)C(=O)N[C@@H](Cc1c[nH]cn1)C(=O)N[C@@H](CC(=O)O)C(=O)CF)”: the “inhibiting effect … (residual enzyme activity)” value in assay [1] (setting [6]) was “exhibited sensitivity”.
For the molecule “VAD-FMK: pan-caspase inhibitor (Cbz-Val-Ala-Asp-CH2F)”, the “inhibiting effect … (residual enzyme activity)” value in assay [1] (setting [6]) is on record as “inhibited caspase-14 activity at about the same level as VAD-FMK; also recorded: one of the most powerful caspase-14 inhibitors”. In assay [2], the “inhibition of disappearance of nuclei” value was “inhibited disappearance of nuclei”.
As for “VEID-FMK: peptide inhibitor for caspases (Cbz-VEID-CH2F; SMILES CC[C@H](C)[C@H](NC(=O)[C@H](CCC(=O)O)NC(=O)[C@@H](NC(=O)OCc1ccccc1)C(C)C)C(=O)N[C@@H](CC(=O)O)C(=O)CF)”, the “inhibiting effect … (residual enzyme activity)” value in assay [1] (setting [6]) was “virtually no effect”.
For `O=C(O)CI` [IAA, iodoacetic acid], the “inhibiting effect … (residual enzyme activity)” value in assay [1] is reported as “no significant inhibiting effect”.
In the case of “VDVAD-FMK: caspase-2 inhibitor (Cbz-VDVAD-CH2F; SMILES CC(C)[C@H](NC(=O)OCc1ccccc1)C(=O)N[C@@H](CC(=O)O)C(=O)N[C@H](C(=O)N[C@@H](C)C(=O)N[C@@H](CC(=O)O)C(=O)CF)C(C)C)”, in assay [1] (setting [6]), the “inhibiting effect … (residual enzyme activity)” value is listed as “exhibited sensitivity”.
On the same count and under the same terms, the entry for `NCCc1ccc(S(=O)(=O)F)cc1` [AEBSF, 4-(2-aminoethyl)benzenesulfonyl fluoride] is “no significant inhibiting effect”; for DEVD-FMK: caspase-3 inhibitor it is “exhibited sensitivity”.

B1: SCCA-1: recombinant squamous cell carcinoma antigen 1, an ov-serpin family papain-like cysteine protease inhibitor (protein)
chain: MNSLSEANTKFMFDLFQQFRKSKENNIFYSPISITSALGMVLLGAKDNTAQQIKKVLHFDQVTENTTGKAATYHVDRSGNVHHQFQKLLTEFNKSTDAYELKIANKLFGEKTYLFLQEYLDAIKKFYQTSVESVDFANAPEESRKKINSWVESQTNEKIKNLIPEGNIGSNTTLVLVNAIYFKGQWEKKFNKEDTKEEKFWPNKNTYKSIQMMRQYTSFHFASLEDVQAKVLEIPYKGKDLSMIVLLPNEIDGLQKLEEKLTAEKLMEWTSLQNMRETRVDLHLPRFKVEESYDLKDTLRTMGMVDIFNGDADLSGMTGSRGLVLSGVLHKAFVEVTEEGAEAAAATAVVGFGSSPTSTNEEFHCNHPFLFFIRQNKTNSILFYGRFSSP
B1: the “inhibiting effect … (residual enzyme activity)” value in assay [1] (setting [6]) is reported as “inhibited caspase-14 activity against WEHD-MCA in a dose-dependent manner”. Further, the “inhibition of ICAD cleavage by caspase-14” value in assay [3] (10 μM SCCA-1, in presence of kosmotropic salt) was “completely inhibited”. Moreover, the “inhibition of ICAD decomposition by caspase-14” value in assay [3] is reported as “inhibition of ICAD decomposition”; in assay [3] (listed as SCCA 1) it was “inhibited ICAD decomposition by caspase-14”. Moreover, in assay [4], the “effect on enzyme activity of caspases 1-10” value is listed as “none of the caspase members (1-10) were affected in their enzyme activity”. Also, the “inhibition of caspase-3 activity” value in assay [5] (natural substrate ICAD) and in assay [5] (synthetic substrate DEVD-MCA) was “did not inhibit” each time.
